This note sets out measurements from patent US20110177077A1.

Test [1] addresses human PAX 5 protein (human) (UniProt Q02548). Briefly: IHC, Reed Sternberg cells, Hodkins lymphoma 1, antibody at 3 ug/mL.
Test [2] has the same target. The test can be described thus: IHC, Reed Sternberg cells, Hodkins lymphoma 2, antibody at 3 ug/mL.
The target is the same in test [3]. The test can be described thus: IHC, Reed Sternberg cells, Hodkins lymphoma 3, antibody at 3 ug/mL.
The target is the same in test [4]. Briefly: IHC, Reed Sternberg cells, Hodkins lymphoma 4, antibody at 3 ug/mL.

Chain of UniProt Q02548 (Q02548 whole entry): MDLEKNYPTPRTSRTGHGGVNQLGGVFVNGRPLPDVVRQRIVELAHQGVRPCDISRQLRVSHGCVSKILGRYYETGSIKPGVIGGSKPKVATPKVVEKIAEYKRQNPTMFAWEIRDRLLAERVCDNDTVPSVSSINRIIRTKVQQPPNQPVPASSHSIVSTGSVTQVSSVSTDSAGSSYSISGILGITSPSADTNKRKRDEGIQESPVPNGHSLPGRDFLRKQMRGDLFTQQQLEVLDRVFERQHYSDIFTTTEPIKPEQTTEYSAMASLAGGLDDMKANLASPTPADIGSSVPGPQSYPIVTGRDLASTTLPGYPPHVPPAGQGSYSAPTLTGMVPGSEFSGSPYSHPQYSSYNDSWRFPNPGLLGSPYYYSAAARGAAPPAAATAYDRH

Consider “monoclonal mouse B-Cell Specific Activator Protein (BSAP), clone DAK-Pax5 (antibody)”, for which the IHC staining intensity score (score on a scale of 0 to 6) in test [1] came to 6; in test [2] it was 0; in test [3] it was 2; in test [4], 6.

As to “monoclonal mouse PAX 5, clone 24 (BD Biosciences) (antibody)”, the IHC staining intensity score (score on a scale of 0 to 6) in test [1] came out at 2; in test [2], 0; in test [3], 1; in test [4], 2.
